Test [1] addresses h159-219_r (human/rat chimera). Briefly: live cell staining (HEK293, flow cytometry).
The target of test [2] is r141-194_h (rat/human chimera) (UniProt P42533). As to the kind of experiment: live cell staining (HEK293, flow cytometry).
Test [3] addresses h159-189_r (human/rat chimera) (UniProt P13726). Briefly: live cell staining (HEK293, flow cytometry).
Test [4] deals with h1-107_r (human/rat chimera). Briefly: live cell staining (HEK293, flow cytometry).
Test [5] has as its target h167-174_r (human/rat chimera) (UniProt P13726). Briefly: live cell staining (HEK293, flow cytometry).
Test [6] has as its target h108-219_r (human/rat chimera). As to the kind of experiment: live cell staining (HEK293, flow cytometry).
Test [7] has as its target h159-174_r (human/rat chimera) (UniProt P13726). Briefly: live cell staining (HEK293, flow cytometry).
For test [8], the target named is r141-194_h (rat/human chimera) (UniProt P42533). Briefly: live cell staining, flow cytometry, transfected HEK293.
Test [9] concerns the target hTF_K149N (human) (UniProt P13726). Described as above.
In test [10] the target is h1-107_r (human/rat chimera). The test is described as above.
Test [11] concerns the target human Tissue Factor (TF) (human) (UniProt P13726). Briefly: cell-based or functional assay.
For test [12], the target named is full-length mouse TF with a C-terminal FLAG tag on Flp-In-CHO cells (mouse) (UniProt P20352). Briefly: flow cytometry on CHO cells expressing mouse TF, MFI at 250 nM antibody.

Bounds are passed on as bounds.

Chain of h1-107_r (human/rat chimera) (chain, as listed by the source mutant limits assumed): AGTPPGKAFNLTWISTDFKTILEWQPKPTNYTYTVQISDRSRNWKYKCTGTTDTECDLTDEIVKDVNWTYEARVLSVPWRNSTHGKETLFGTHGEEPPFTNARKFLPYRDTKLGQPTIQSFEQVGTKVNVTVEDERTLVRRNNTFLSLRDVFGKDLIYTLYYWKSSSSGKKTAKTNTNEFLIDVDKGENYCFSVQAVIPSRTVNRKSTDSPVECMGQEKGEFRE
Chain of h108-219_r (human/rat chimera) (chain, as listed by the source mutant limits assumed): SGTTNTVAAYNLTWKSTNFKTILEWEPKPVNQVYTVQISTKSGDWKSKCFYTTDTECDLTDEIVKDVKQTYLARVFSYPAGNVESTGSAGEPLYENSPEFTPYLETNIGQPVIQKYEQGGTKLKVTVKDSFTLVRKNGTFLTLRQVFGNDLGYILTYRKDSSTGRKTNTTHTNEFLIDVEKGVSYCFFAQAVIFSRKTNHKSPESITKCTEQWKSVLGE

With “5G9 (humanized TF8-5G9, CNTO 860) (antibody)”, the Percentage antibody binding to TF construct relative to hTF in test [1], in test [2], in [3], in test [4], in [5] and in [6] was below 50% in each case. This substance came in with a Percentage antibody binding to TF construct relative to hTF in test [7] below 50%. Also, the percent antibody binding to TF construct relative to hTF in test [8] is 32%; in test [9] it was 145%; in test [10], 41%.

In [11], Control came in with a % GM-CSF at 2.56 nM of 88%, a % GM-CSF at 6.4 nM of 86%, a % GM-CSF at 100 nM of 105% and a % IL8 at 2.56 nM of 90%. In test [11], this substance came in with a % IL8 at 6.4 nM of 88% and a % IL8 at 16 nM of 84%.

Take IgG1 isotype control (antibody): the MFI at 250 nM in test [12] is 7400.
